T1: human PD-1 ECD-Fc chimeric construct 16 (human, UniProt Q15116 21-170)
T1 construct: not shown: human IgG1 Fc, residues P101-K330
T1 chain: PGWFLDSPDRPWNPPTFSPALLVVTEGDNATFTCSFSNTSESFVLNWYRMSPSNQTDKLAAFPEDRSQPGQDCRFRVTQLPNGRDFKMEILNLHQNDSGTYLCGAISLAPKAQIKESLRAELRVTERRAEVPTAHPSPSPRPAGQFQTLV

T2: human PD-1 ECD-Fc chimeric construct 3 (human, UniProt Q15116 21-170)
T2 construct: not shown: human IgG1 Fc, residues P101-K330
T2 chain: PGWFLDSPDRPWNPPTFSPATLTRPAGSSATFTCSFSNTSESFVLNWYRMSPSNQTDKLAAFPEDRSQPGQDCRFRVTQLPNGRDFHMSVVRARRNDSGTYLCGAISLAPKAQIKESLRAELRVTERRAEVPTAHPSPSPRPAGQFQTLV

T3: human PD-1 ECD-Fc chimeric construct 20 (human, UniProt Q15116 21-170)
T3 construct: printed run together as I134VK135V; not shown: human IgG1 Fc, residues P101-K330
T3 chain: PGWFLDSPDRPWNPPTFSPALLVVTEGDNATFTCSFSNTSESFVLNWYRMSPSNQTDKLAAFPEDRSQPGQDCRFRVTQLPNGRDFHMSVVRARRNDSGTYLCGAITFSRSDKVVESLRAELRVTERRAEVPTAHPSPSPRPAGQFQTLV

T4: human PD-1 ECD-Fc chimeric construct 22 (human, UniProt Q15116 21-170)
T4 construct: not shown: human IgG1 Fc, residues P101-K330
T4 chain: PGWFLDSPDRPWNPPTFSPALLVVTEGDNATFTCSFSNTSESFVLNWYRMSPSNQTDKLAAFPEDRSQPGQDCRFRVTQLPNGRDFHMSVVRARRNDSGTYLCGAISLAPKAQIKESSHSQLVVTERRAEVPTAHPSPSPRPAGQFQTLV

T5: human PD-1 ECD-Fc chimeric construct 15 (human, UniProt Q15116 21-170)
T5 construct: not shown: human IgG1 Fc, residues P101-K330
T5 chain: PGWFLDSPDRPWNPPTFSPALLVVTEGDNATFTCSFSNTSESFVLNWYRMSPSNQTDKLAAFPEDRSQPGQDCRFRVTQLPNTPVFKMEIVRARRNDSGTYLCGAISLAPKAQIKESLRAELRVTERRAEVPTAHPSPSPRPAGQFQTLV


What was measured:
Test in all cases: SPR, Fab on captured PD-1-Fc
[1] = target: T1, human PD-1 ECD-Fc chimeric construct 16
Procedure: (§1) The human PD-1 Fc fusion constructs were harvested after 9 days and supernatants were tested for binding affinity to anti-PD-1 Fabs by Surface Plasmon Resonance (SPR). Culture supernatants containing PD-1 fusion proteins were immobilized onto an G-a-hu-IgG Fc SensEye® (Ssens BV, The Netherlands) for 15 minutes using a Continuous Flow Microspotter (CFM, Wasatch Microfluidics, Salt Lake City, US). After spotting, the SensEye® was positioned in an IBIS MX96 biosensor and captured proteins were fixed to the surface using FixIT kit (Ssens BV, The Netherlands). […] Fab association was performed for 15 minutes and antigen dissociation was performed for 30 minutes. The recorded binding responses were fitted to a simple Langmuir 1:1 binding model with Scrubber 2 software for calculation of the on-rate (kₒₙ or ka), off-rate (koff or kd) and affinity (KD) constants.
(§2) The change in binding affinity of Fab antibodies binding to the mutated PD-1 constructs compared to wild-type were expressed as the ratio of KD mutant/KD wild-type (normalized binding affinity).

[2] = target: T6, human PD-1 ECD-Fc chimeric construct 1 (human, UniProt Q15116 21-170)
T6 construct: not shown: human IgG1 Fc, residues P101-K330

[3] = target: T2, human PD-1 ECD-Fc chimeric construct 3
Procedure: as §1, §2

[4] = target: T3, human PD-1 ECD-Fc chimeric construct 20
Procedure: as §1, §2

[5] = target: T4, human PD-1 ECD-Fc chimeric construct 22
Procedure: as §1, §2

[6] = target: T5, human PD-1 ECD-Fc chimeric construct 15
Procedure: as §1, §2

human PD-1 ECD-Fc G90A = target: T7, human PD-1 ECD-Fc G90A (human, UniProt Q15116 21-170)
T7 construct: not shown: human IgG1 Fc, residues P101-K330

human PD-1 ECD-Fc Q165A = target: T8, human PD-1 ECD-Fc Q165A (human, UniProt Q15116 21-170)
T8 construct: not shown: human IgG1 Fc, residues P101-K330

human PD-1 ECD-Fc T145A = target: T9, human PD-1 ECD-Fc T145A (human, UniProt Q15116 21-170)
T9 construct: not shown: human IgG1 Fc, residues P101-K330

human PD-1 ECD-Fc L128A = target: T10, human PD-1 ECD-Fc L128A (human, UniProt Q15116 21-170)
T10 construct: not shown: human IgG1 Fc, residues P101-K330

human PD-1 ECD-Fc D85A = target: T11, human PD-1 ECD-Fc D85A (human, UniProt Q15116 21-170)
T11 construct: not shown: human IgG1 Fc, residues P101-K330

human PD-1 ECD-Fc V64K = target: T12, human PD-1 ECD-Fc V64K (human, UniProt Q15116 21-170)
T12 construct: also called Rat mutation V64K; not shown: human IgG1 Fc, residues P101-K330

human PD-1 ECD-Fc E84A = target: T13, human PD-1 ECD-Fc E84A (human, UniProt Q15116 21-170)
T13 construct: not shown: human IgG1 Fc, residues P101-K330

human PD-1 ECD-Fc A50G = target: T14, human PD-1 ECD-Fc A50G (human, UniProt Q15116 21-170)
T14 construct: not shown: human IgG1 Fc, residues P101-K330

human PD-1 ECD-Fc P101A = target: T15, human PD-1 ECD-Fc P101A (human, UniProt Q15116 21-170)
T15 construct: not shown: human IgG1 Fc, residues P101-K330

human PD-1 ECD-Fc N58A = target: T16, human PD-1 ECD-Fc N58A (human, UniProt Q15116 21-170)
T16 construct: not shown: human IgG1 Fc, residues P101-K330

human PD-1 ECD-Fc G47A = target: T17, human PD-1 ECD-Fc G47A (human, UniProt Q15116 21-170)
T17 construct: not shown: human IgG1 Fc, residues P101-K330

human PD-1 ECD-Fc P160A = target: T18, human PD-1 ECD-Fc P160A (human, UniProt Q15116 21-170)
T18 construct: not shown: human IgG1 Fc, residues P101-K330

human PD-1 ECD-Fc G103A = target: T19, human PD-1 ECD-Fc G103A (human, UniProt Q15116 21-170)
T19 construct: not shown: human IgG1 Fc, residues P101-K330

human PD-1 ECD-Fc N33A = target: T20, human PD-1 ECD-Fc N33A (human, UniProt Q15116 21-170)
T20 construct: not shown: human IgG1 Fc, residues P101-K330

human PD-1 ECD-Fc L138A = target: T21, human PD-1 ECD-Fc L138A (human, UniProt Q15116 21-170)
T21 construct: not shown: human IgG1 Fc, residues P101-K330

human PD-1 ECD-Fc A40T = target: T22, human PD-1 ECD-Fc A40T (human, UniProt Q15116 21-170)
T22 construct: also called Rat mutation A40T; not shown: human IgG1 Fc, residues P101-K330

human PD-1 ECD-Fc T98A = target: T23, human PD-1 ECD-Fc T98A (human, UniProt Q15116 21-170)
T23 construct: not shown: human IgG1 Fc, residues P101-K330

human PD-1 ECD-Fc P162A = target: T24, human PD-1 ECD-Fc P162A (human, UniProt Q15116 21-170)
T24 construct: not shown: human IgG1 Fc, residues P101-K330

| Binder | KD mutant/KD wild-type [1] | KD mutant/KD wild-type [2] | KD mutant/KD wild-type [3] | KD mutant/KD wild-type [5] | KD mutant/KD wild-type [6] | KD mutant/KD wild-type (human PD-1 ECD-Fc G90A) | KD mutant/KD wild-type (human PD-1 ECD-Fc Q165A) | KD mutant/KD wild-type (human PD-1 ECD-Fc T145A) | KD mutant/KD wild-type (human PD-1 ECD-Fc L128A) | KD mutant/KD wild-type (human PD-1 ECD-Fc D85A) | KD mutant/KD wild-type (human PD-1 ECD-Fc V64K) | KD mutant/KD wild-type (human PD-1 ECD-Fc E84A) | KD mutant/KD wild-type (human PD-1 ECD-Fc A50G) | KD mutant/KD wild-type (human PD-1 ECD-Fc P101A) | KD mutant/KD wild-type (human PD-1 ECD-Fc N58A) | KD mutant/KD wild-type (human PD-1 ECD-Fc G47A) | KD mutant/KD wild-type (human PD-1 ECD-Fc P160A) | KD mutant/KD wild-type (human PD-1 ECD-Fc G103A) | KD mutant/KD wild-type (human PD-1 ECD-Fc N33A) | KD mutant/KD wild-type (human PD-1 ECD-Fc L138A) | other results |
| --- | --- | --- | --- | --- | --- | --- | --- | --- | --- | --- | --- | --- | --- | --- | --- | --- | --- | --- | --- | --- | --- |
| 12819.17149 Fab (Fab, V domains shown, monomeric Fab fragment) VH: EVQLLESGGGLVQPGGSLRLSCAASGFTFTRYDMVWVRQAPGKGLEWVAGIGDSNKMTRYAPAVKGRATISRDNSKNTLYLQMNSLRAEDTAVYYCAKGSCIACWDEAGRIDAWGQGTLVTVSS VL: SYELTQDPAVSVALGQTVRITCSGGGSYDGSSYYGWYQQKPGQAPVTVIYNNNNRPSDIPDRFSGSSSGNTASLTITGAQAEDEADYYCGSYDRPETNSDYVGMFGSGTKVTVL | 3.6 ratio | 1.2 ratio | 1.3 ratio | 1.9 ratio | 1.3 ratio | 1 ratio | 1.1 ratio | 1.1 ratio | 17.1 ratio | 2.5 ratio | 35.7 ratio | 1.3 ratio | 1.4 ratio | 1.1 ratio | 1.3 ratio | 1.6 ratio | 1 ratio | 1.1 ratio | 1 ratio | 1 ratio | binding result [4]: no binding (tested: 1 nM to 50 nM); KD mutant/KD wild-type (human PD-1 ECD-Fc A40T): 2 ratio; KD mutant/KD wild-type (human PD-1 ECD-Fc T98A): 1.1 ratio; KD mutant/KD wild-type (human PD-1 ECD-Fc P162A): 1.3 ratio |
| 12865.17150 Fab (Fab, V domains shown, monomeric Fab fragment) VH: EVQLLESGGGLVQPGGSLRLSCAASGFDFSDHGMQWVRQAPGKGLEYVGVIDTTGRYTYYAPAVKGRATISRDNSKNTLYLQMNSLRAEDTAVYYCAKTTCVGGYLCNTVGSIDAWGQGTLVTVSS VL: SYELTQDPAVSVALGQTVRITCSGGGSSSYYGWYQQKPGQAPVTVIYDDTNRPSGIPDRFSGSSSGNTASLTITGAQAEDEADYYCGGYEGSSHAGIFGSGTKVTVL | 0.4 ratio | 0.6 ratio | 0.6 ratio | 1 ratio | 0.8 ratio | 0.8 ratio | 1.1 ratio | 0.7 ratio | 2.1 ratio | 1.6 ratio | 1.3 ratio | 1 ratio | 0.6 ratio | 1 ratio | 0.7 ratio | 0.5 ratio | 0.8 ratio | 0.8 ratio | 1.1 ratio | 1.1 ratio | binding result [4]: no binding (tested: 1 nM to 50 nM); KD mutant/KD wild-type (human PD-1 ECD-Fc A40T): 1 ratio; KD mutant/KD wild-type (human PD-1 ECD-Fc T98A): 0.9 ratio; KD mutant/KD wild-type (human PD-1 ECD-Fc P162A): 1.1 ratio |
| 13112.15380 Fab (Fab, V domains shown) VH: EVQLLESGGGLVQPGGSLRLSCAASGFTFSSYNMFWVRQAPGKGLEFVAEISGSNTGSRTWYAPAVKGRATISRDNSKNTLYLQMNSLRAEDTAVYYCAKSIYGGYCAGGYSCGVGLIDAWGQGTLVTVSS VL: SYELTQDPAVSVALGQTVRITCSGGSSDYYGWFQQKPGQAPVTVIYYNNKRPSDIPDRFSGSSSGNTASLTITGAQAEDEADYYCGNADSSVGVFGSGTKVTVL | 0.7 ratio | 0.4 ratio | 0.7 ratio | 1 ratio | 0.9 ratio | 1 ratio | 1.1 ratio | 82.4 ratio | 0.9 ratio | 0.9 ratio | 1 ratio | 1 ratio | 1.7 ratio | 0.9 ratio | 1 ratio | 0.6 ratio | 1 ratio | 0.9 ratio | 1 ratio | 1.2 ratio | KD mutant/KD wild-type [4]: 0.6 ratio; KD mutant/KD wild-type (human PD-1 ECD-Fc A40T): 0.6 ratio; KD mutant/KD wild-type (human PD-1 ECD-Fc T98A): 1 ratio; KD mutant/KD wild-type (human PD-1 ECD-Fc P162A): 1.1 ratio |

Reference: patent publication US20210284734A1 (SYMPHOGEN A S, published 2021)
